Square brackets hold non-standard residues; d marks the D form. * marks the point of attachment. Bip = N[C@@H](Cc1ccc(-c2ccccc2)cc1)C(=O)O; Phe(4-I) = N[C@@H](Cc1ccc(I)cc1)C(=O)O; dPhe(4-I) = N[C@H](Cc1ccc(I)cc1)C(=O)O; 2Nal = N[C@@H](Cc1ccc2ccccc2c1)C(=O)O; d2Nal = N[C@H](Cc1ccc2ccccc2c1)C(=O)O; Bta = N[C@@H](Cc1csc2ccccc12)C(=O)O; Tic = O=C(O)[C@@H]1Cc2ccccc2CN1; For = O=C*
B1: SKY5-142-A, For-DPhe-(pI)Phe-DArg-DHis-NH2 (peptide)
peptide: For-[dF][Phe(4-I)][dR][dH]-NH2
SMILES: N=C(N)NCCC[C@@H](NC(=O)[C@H](Cc1ccc(I)cc1)NC(=O)[C@@H](Cc1ccccc1)NC=O)C(=O)N[C@H](Cc1c[nH]cn1)C(N)=O
B2: SKY4-48-31, Ac-Phe-Arg-(pI)DPhe-Phe-NH2 (peptide)
peptide: Ac-FR[dPhe(4-I)]F-NH2
SMILES: CC(=O)N[C@@H](Cc1ccccc1)C(=O)N[C@@H](CCCNC(=N)N)C(=O)N[C@H](Cc1ccc(I)cc1)C(=O)N[C@@H](Cc1ccccc1)C(N)=O
B3: SKY5-146-4, Ac-3Bal-Arg-(pI)DPhe-Phe-NH2 (peptide)
peptide: Ac-[Bta]R[dPhe(4-I)]F-NH2
SMILES: CC(=O)N[C@@H](Cc1csc2ccccc12)C(=O)N[C@@H](CCCNC(=N)N)C(=O)N[C@H](Cc1ccc(I)cc1)C(=O)N[C@@H](Cc1ccccc1)C(N)=O
B4: SKY4-48-28, Ac-Bip-Arg-(pI)DPhe-Phe-NH2 (peptide)
peptide: Ac-[Bip]R[dPhe(4-I)]F-NH2
SMILES: CC(=O)N[C@@H](Cc1ccc(-c2ccccc2)cc1)C(=O)N[C@@H](CCCNC(=N)N)C(=O)N[C@H](Cc1ccc(I)cc1)C(=O)N[C@@H](Cc1ccccc1)C(N)=O
B5: SKY4-48-32, Ac-Nal(2')-Arg-(pI)DPhe-Phe-NH2 (peptide)
peptide: Ac-[2Nal]R[dPhe(4-I)]F-NH2
SMILES: CC(=O)N[C@@H](Cc1ccc2ccccc2c1)C(=O)N[C@@H](CCCNC(=N)N)C(=O)N[C@H](Cc1ccc(I)cc1)C(=O)N[C@@H](Cc1ccccc1)C(N)=O

target: T1, mouse melanocortin-4 receptor (mouse, UniProt P56450 1-332); assay: cell-based or functional assay
T1 sequence (P56450 whole entry): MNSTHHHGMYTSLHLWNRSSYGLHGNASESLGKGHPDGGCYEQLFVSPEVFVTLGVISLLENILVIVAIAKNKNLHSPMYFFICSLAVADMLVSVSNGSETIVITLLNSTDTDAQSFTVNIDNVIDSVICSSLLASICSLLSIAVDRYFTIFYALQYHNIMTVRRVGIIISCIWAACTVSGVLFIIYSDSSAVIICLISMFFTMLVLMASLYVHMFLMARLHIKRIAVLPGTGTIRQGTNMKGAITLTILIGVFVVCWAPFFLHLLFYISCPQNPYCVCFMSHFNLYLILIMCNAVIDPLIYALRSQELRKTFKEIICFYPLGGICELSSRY

Antagonist Ki	Binder
> 3.1 µM	B1

target: T2, mouse melanocortin-3 receptor (mouse, UniProt P33033 1-323); assay: cell-based or functional assay
T2 sequence (P33033 whole entry): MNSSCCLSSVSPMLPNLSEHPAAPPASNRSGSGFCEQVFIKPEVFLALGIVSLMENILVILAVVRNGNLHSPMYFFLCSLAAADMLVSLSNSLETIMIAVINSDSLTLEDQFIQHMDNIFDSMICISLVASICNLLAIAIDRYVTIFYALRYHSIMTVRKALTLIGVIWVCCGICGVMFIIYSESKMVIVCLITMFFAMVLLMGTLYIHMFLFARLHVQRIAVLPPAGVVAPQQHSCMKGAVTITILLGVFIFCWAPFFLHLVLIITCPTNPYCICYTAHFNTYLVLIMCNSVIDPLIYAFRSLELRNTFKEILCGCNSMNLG

Agonist, % of NDP-MSH maximal response	Binder
22 % @ 100 µM	Ac-FR[dPhe(4-I)][d2Nal]-NH2 [SKY4-48-47, Ac-Phe-Arg-(pI)DPhe-DNal(2')-NH2]
42 % @ 100 µM	Ac-[Tic]R[dPhe(4-I)][d2Nal]-NH2 [SKY4-48-46, Ac-Tic-Arg-(pI)DPhe-DNal(2')-NH2]
34 % @ 100 µM	Ac-[Bta]R[dPhe(4-I)][d2Nal]-NH2 [SKY4-48-45, Ac-3Bal-Arg-(pI)DPhe-DNal(2')-NH2]
39 % @ 100 µM	Ac-[2Nal]R[dPhe(4-I)][2Nal]-NH2 [SKY4-48-40, Ac-Nal(2')-Arg-(pI)DPhe-Nal(2')-NH2]
50 % @ 100 µM	B2
37 % @ 100 µM	B3
31 % @ 100 µM	Ac-[2Nal]R[dPhe(4-I)][d2Nal]-NH2 [SKY4-48-48, Ac-Nal(2')-Arg-(pI)DPhe-DNal(2')-NH2]
77 % @ 100 µM	B4
42 % @ 100 µM	B5
43 % @ 100 µM	Ac-[d2Nal]R[dPhe(4-I)][2Nal]-NH2 [SKY5-146-5, Ac-DNal(2')-Arg-(pI)DPhe-Nal(2')-NH2]
57 % @ 100 µM	Ac-HR[dPhe(4-I)][2Nal]-NH2 [SKY4-48-35, Ac-His-Arg-(pI)DPhe-Nal(2')-NH2]
44 % @ 100 µM	Ac-FR[dPhe(4-I)][2Nal]-NH2 [SKY4-48-39, Ac-Phe-Arg-(pI)DPhe-Nal(2')-NH2]
30 % @ 100 µM	Ac-FR[dPhe(4-I)][Bip]-NH2 [SKY4-48-7, Ac-Phe-Arg-(pI)DPhe-Bip-NH2]
30 % @ 100 µM	Ac-[d2Nal]R[dPhe(4-I)][Bip]-NH2 [SKY5-146-2, Ac-DNal(2')-Arg-(pI)DPhe-Bip-NH2]
45 % @ 100 µM	Ac-RR[dPhe(4-I)][Bip]-NH2 [SKY4-48-2, Ac-Arg-Arg-(pI)DPhe-Bip-NH2]
51 % @ 100 µM	Ac-[Bta]R[dPhe(4-I)][Bip]-NH2 [SKY4-48-5, Ac-3Bal-Arg-(pI)DPhe-Bip-NH2]
53 % @ 100 µM	Ac-HR[dPhe(4-I)][Bip]-NH2 [SKY4-48-3, Ac-His-Arg-(pI)DPhe-Bip-NH2]

target: T1, mouse melanocortin-4 receptor; assay: cell-based or functional assay; remark: another data set of the same source

Agonist, % of NDP-MSH maximal response	Binder
33 % @ 100 µM	Ac-[Tic]R[dPhe(4-I)][d2Nal]-NH2 [SKY4-48-46, Ac-Tic-Arg-(pI)DPhe-DNal(2')-NH2]
38 % @ 100 µM	Ac-[Bta]R[dPhe(4-I)][d2Nal]-NH2 [SKY4-48-45, Ac-3Bal-Arg-(pI)DPhe-DNal(2')-NH2]
39 % @ 100 µM	Ac-[d2Nal]R[dPhe(4-I)][2Nal]-NH2 [SKY5-146-5, Ac-DNal(2')-Arg-(pI)DPhe-Nal(2')-NH2]
35 % @ 100 µM	Ac-HR[dPhe(4-I)][2Nal]-NH2 [SKY4-48-35, Ac-His-Arg-(pI)DPhe-Nal(2')-NH2]
42 % @ 100 µM	Ac-[d2Nal]R[dPhe(4-I)][Bip]-NH2 [SKY5-146-2, Ac-DNal(2')-Arg-(pI)DPhe-Bip-NH2]
32 % @ 100 µM	Ac-RR[dPhe(4-I)][Bip]-NH2 [SKY4-48-2, Ac-Arg-Arg-(pI)DPhe-Bip-NH2]
35 % @ 100 µM	Ac-[Bta]R[dPhe(4-I)][Bip]-NH2 [SKY4-48-5, Ac-3Bal-Arg-(pI)DPhe-Bip-NH2]
43 % @ 100 µM	Ac-HR[dPhe(4-I)][Bip]-NH2 [SKY4-48-3, Ac-His-Arg-(pI)DPhe-Bip-NH2]

target: mouse melanocortin-1 receptor (mouse, UniProt Q01727 1-315); assay: cell-based or functional assay
Sequence (Q01727 whole entry): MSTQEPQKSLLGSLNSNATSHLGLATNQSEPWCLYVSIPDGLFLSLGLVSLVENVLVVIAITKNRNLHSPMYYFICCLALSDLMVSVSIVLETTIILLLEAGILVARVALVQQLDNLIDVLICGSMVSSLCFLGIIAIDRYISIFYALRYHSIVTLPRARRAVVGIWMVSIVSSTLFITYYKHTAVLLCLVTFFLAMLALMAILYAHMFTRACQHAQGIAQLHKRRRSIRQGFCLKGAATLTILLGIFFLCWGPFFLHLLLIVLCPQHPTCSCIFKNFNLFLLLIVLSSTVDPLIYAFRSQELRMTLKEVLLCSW

Agonist, % of NDP-MSH maximal response	Binder
36 % @ 100 µM	Ac-[Bta]R[dPhe(4-I)][d2Nal]-NH2 [SKY4-48-45, Ac-3Bal-Arg-(pI)DPhe-DNal(2')-NH2]
53 % @ 100 µM	Ac-[2Nal]R[dPhe(4-I)][d2Nal]-NH2 [SKY4-48-48, Ac-Nal(2')-Arg-(pI)DPhe-DNal(2')-NH2]
67 % @ 100 µM	Ac-FR[dPhe(4-I)][Bip]-NH2 [SKY4-48-7, Ac-Phe-Arg-(pI)DPhe-Bip-NH2]
44 % @ 100 µM	Ac-RR[dPhe(4-I)][Bip]-NH2 [SKY4-48-2, Ac-Arg-Arg-(pI)DPhe-Bip-NH2]

target: mouse melanocortin-5 receptor (mouse, UniProt P41149 1-325); assay: cell-based or functional assay
Sequence (P41149 whole entry): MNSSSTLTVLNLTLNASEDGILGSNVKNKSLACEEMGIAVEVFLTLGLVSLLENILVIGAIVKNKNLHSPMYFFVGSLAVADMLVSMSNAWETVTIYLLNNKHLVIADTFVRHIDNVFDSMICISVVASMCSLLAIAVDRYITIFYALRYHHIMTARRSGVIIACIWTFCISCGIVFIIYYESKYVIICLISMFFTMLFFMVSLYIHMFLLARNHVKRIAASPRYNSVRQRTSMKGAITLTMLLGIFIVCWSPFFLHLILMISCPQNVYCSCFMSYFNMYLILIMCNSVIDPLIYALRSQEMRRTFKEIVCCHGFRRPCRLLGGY

Agonist, % of NDP-MSH maximal response	Binder
39 % @ 100 µM	Ac-FR[dPhe(4-I)][d2Nal]-NH2 [SKY4-48-47, Ac-Phe-Arg-(pI)DPhe-DNal(2')-NH2]
74 % @ 100 µM	Ac-[Tic]R[dPhe(4-I)][d2Nal]-NH2 [SKY4-48-46, Ac-Tic-Arg-(pI)DPhe-DNal(2')-NH2]
41 % @ 100 µM	Ac-[Bta]R[dPhe(4-I)][d2Nal]-NH2 [SKY4-48-45, Ac-3Bal-Arg-(pI)DPhe-DNal(2')-NH2]
45 % @ 100 µM	Ac-[2Nal]R[dPhe(4-I)][2Nal]-NH2 [SKY4-48-40, Ac-Nal(2')-Arg-(pI)DPhe-Nal(2')-NH2]
52 % @ 100 µM	B2
35 % @ 100 µM	B3
40 % @ 100 µM	Ac-[2Nal]R[dPhe(4-I)][d2Nal]-NH2 [SKY4-48-48, Ac-Nal(2')-Arg-(pI)DPhe-DNal(2')-NH2]
69 % @ 100 µM	B4
49 % @ 100 µM	B5
40 % @ 100 µM	Ac-[d2Nal]R[dPhe(4-I)][2Nal]-NH2 [SKY5-146-5, Ac-DNal(2')-Arg-(pI)DPhe-Nal(2')-NH2]
61 % @ 100 µM	Ac-FR[dPhe(4-I)][2Nal]-NH2 [SKY4-48-39, Ac-Phe-Arg-(pI)DPhe-Nal(2')-NH2]

target: T2, mouse melanocortin-3 receptor; assay: cell-based or functional assay; remark: another data set of the same source

pA2 (antagonist)	Binder
6.7 pA2	B1

target: T1, mouse melanocortin-4 receptor; assay: cell-based or functional assay; remark: another data set of the same source

Agonist, % of NDP-MSH maximal response	Binder
47 % @ 100 µM	B1
